Target: T1, recombinant murine Factor H (murine, UniProt P06909 19-1234)
T1 construct: murine complement Factor H, residues 19-1234 of UniProt P06909; also called FH; source: CHO cells, transfected, purified from the supernatant (HiTrap His column)
Assay: ELISA; Figure 1A-B: by the legend varying concentrations of Factor H immobilised on the plate, a fixed concentration of rA2 or of an annexin A2 fragment added, bound annexin A2 detected with an antibody (the methods tell the reverse: 800 ng rA2 adsorbed, Factor H 20 μg/ml in TBS with 2 mM Ca, 3 h, room temperature)
Details: both partners purified

T1 sequence (P06909 19-1234): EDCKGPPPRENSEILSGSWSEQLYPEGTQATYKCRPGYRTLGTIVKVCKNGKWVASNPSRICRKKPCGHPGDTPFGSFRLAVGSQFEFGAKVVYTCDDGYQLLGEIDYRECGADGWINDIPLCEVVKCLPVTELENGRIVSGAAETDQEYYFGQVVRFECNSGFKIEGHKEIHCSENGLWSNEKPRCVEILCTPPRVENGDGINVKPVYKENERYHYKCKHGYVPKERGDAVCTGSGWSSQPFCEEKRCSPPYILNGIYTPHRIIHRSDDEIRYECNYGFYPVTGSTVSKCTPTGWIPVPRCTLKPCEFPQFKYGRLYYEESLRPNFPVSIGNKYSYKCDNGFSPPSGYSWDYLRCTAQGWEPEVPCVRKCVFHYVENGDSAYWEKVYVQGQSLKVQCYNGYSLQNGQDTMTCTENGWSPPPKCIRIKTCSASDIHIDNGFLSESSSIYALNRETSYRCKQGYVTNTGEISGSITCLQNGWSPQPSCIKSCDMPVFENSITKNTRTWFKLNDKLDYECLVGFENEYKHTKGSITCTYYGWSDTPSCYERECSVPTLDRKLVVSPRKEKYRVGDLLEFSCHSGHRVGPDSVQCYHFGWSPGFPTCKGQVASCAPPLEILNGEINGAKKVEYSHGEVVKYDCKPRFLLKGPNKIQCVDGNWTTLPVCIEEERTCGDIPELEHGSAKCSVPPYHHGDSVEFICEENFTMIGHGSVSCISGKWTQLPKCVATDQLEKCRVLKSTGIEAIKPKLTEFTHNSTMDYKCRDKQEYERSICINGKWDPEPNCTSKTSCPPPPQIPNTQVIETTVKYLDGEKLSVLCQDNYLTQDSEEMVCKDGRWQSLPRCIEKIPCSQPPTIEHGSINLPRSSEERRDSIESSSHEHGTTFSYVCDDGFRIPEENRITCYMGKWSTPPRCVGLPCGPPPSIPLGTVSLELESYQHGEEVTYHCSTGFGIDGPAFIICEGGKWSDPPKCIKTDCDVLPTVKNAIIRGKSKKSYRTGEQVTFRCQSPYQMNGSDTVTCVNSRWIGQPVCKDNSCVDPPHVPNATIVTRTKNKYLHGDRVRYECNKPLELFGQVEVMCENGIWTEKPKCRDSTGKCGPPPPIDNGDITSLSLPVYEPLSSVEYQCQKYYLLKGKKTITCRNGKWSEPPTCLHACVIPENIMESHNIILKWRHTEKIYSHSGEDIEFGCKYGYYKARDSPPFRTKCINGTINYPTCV

B1: recombinant annexin A2 (natural protein, mouse, UniProt P07356 1-339, looked up)
chain: MSTVHEILCKLSLEGDHSTPPSAYGSVKPYTNFDAERDALNIETAVKTKGVDEVTIVNILTNRSNVQRQDIAFAYQRRTKKELPSALKSALSGHLETVILGLLKTPAQYDASELKASMKGLGTDEDSLIEIICSRTNQELQEINRVYKEMYKTDLEKDIISDTSGDFRKLMVALAKGRRAEDGSVIDYELIDQDARELYDAGVKRKGTDVPKWISIMTERSVCHLQKVFERYKSYSPYDMLESIKKEVKGDLENAFLNLVQCIQNKPLYFADRLYDSMKGKGTRDKVLIRIMVSRSEVDMLKIRSEFKRKYGKSLYYYIQQDTKGDYQKALLYLCGGDD
notes: annexin A2, mouse; cDNA reverse transcribed from total mRNA of a C57BL/6 mouse kidney; also called rA2; AnxA2; source: CHO cells, transfected, purified from the supernatant (HiTrap His column)
binding result: binds

Reference: paper PMC12493207, “Annexin A2 interferes with complement regulation within the glomerulus” (The Journal of Biological Chemistry, 2025)
